± gives the uncertainty stated by the source.
Test: self-splicing fitness, log relative to wild type (ln ratio); higher = more splicing; Tetrahymena group I intron in knt gene, E. coli kanamycin selection, DiMSum; sequences stand for … in CUCUCU…GGAGGGAAAAGUUAUCAGGCAUGCACCUGGUAGCUAGUCUUUAAACCAAUAGAUUGCAUCGGUUUAAAAGGCAAGACCGUCAAAUUGCGGGAAAGGGGUCAACAGCCGUUCAGUACCAAGUCUCAGGGGAAACUUUGAGAUGGCCUUGCAAAGGGUAUGGUAAUAAGCUGACGGACAUGGUCCUAACCACGCAGCCAAGUCCUAAGUCAACAGAUCUUCUGUUGAUAUGGAUGCAGUUCACAGACUAAAUGUCGGUCGGGGAAGAUGUAUUCUUCUCAUAAGAUAUAGUCGGACCUCUCCUUAAUGGGAGCUAGCGGAUGAAGUGAUGCAACACUGGAGCCGCUGGGAACUAAUUUGUAUGCGAAAGUAUAUUGAUUAGUUUUGGAGUACUCGUGGUCG
Procedure, shortened: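 Pooled colonies went to amplicon sequencing on an Illumina HiSeq 2500 after six replicate transformations. The plates were LB agar with 100 μg/mL carbenicillin, 50 μM IPTG and 0.2% rhamnose, with or without 25 μg/mL kanamycin, incubated overnight at 37°C or 30°C. The E. coli BL21(DE3) library had all eight P1ex-region intron nucleotides randomised, the intron placed in the knt kanamycin-resistance gene on pET-22b(+). DiMSum fitness is the error-weighted combination of replicate fold changes, kanamycin against none, normalised to wild type.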

Sequence | self-splicing fitness (ln) (30 °C) | self-splicing fitness (ln) (37 °C)
ACAAAGCAAUAUUACGGGAG | -1.72 ± 0.1 | -1.08 ± 0.12
ACAAAGCAAUAUUACGGUGA | -1.28 ± 0.069 | -0.535 ± 0.07
ACAAAGCAAUAUUACGUGAC | -3.4 ± 0.11 | -1.37 ± 0.092
ACAAAGCAAUAUUACGUGCA | -0.78 ± 0.057 | -0.154 ± 0.074
ACAAAGCAAUAUUACGUGCC | -1.14 ± 0.077 | -1.16 ± 0.097
ACAAAGCAAUAUUACGUGCU | -0.981 ± 0.069 | -0.486 ± 0.082
ACAAAGCAAUAUUACGUGGU | -2.87 ± 0.084 | -2.99 ± 0.12
ACAAAGCAAUAUUACGUUCG | -1.28 ± 0.049 | -0.0172 ± 0.067
ACAAAGCAAUAUUACGUUGU | -3.68 ± 0.14 | -2.18 ± 0.15
ACACAGCAAUAUUACGAAGU | -3.43 ± 0.14 | -2.21 ± 0.15
ACACAGCAAUAUUACGACGA | -0.721 ± 0.074 | -0.406 ± 0.081
ACACAGCAAUAUUACGACGU | -0.452 ± 0.048 | 0.722 ± 0.073
ACACAGCAAUAUUACGAGAG | -3.65 ± 0.14 | -2.37 ± 0.12
ACACAGCAAUAUUACGAGCC | -1.97 ± 0.17 | -0.179 ± 0.19
ACACAGCAAUAUUACGAGUA | -2.69 ± 0.12 | -0.889 ± 0.081
ACACAGCAAUAUUACGAUUC | -1.96 ± 0.049 | -1.32 ± 0.072
ACACAGCAAUAUUACGCAAC | -5.33 ± 0.36 | -1.88 ± 0.17
ACACAGCAAUAUUACGCCUG | -0.898 ± 0.07 | -0.245 ± 0.076
ACACAGCAAUAUUACGCUGA | -2.42 ± 0.096 | -1.47 ± 0.083
ACACAGCAAUAUUACGCUUC |  | -3.08 ± 0.23
ACACAGCAAUAUUACGCUUG | -1.24 ± 0.063 | -0.733 ± 0.076
ACACAGCAAUAUUACGGAGU | -2.39 ± 0.087 | -2.01 ± 0.11
ACACAGCAAUAUUACGGAUC | -2.94 ± 0.12 | -2.1 ± 0.15
ACACAGCAAUAUUACGGCUC | -0.896 ± 0.067 | -0.461 ± 0.088

Sequence | self-splicing fitness (ln) (30 °C) | self-splicing fitness (ln) (37 °C)
ACACAGCAAUAUUACGGGAA | -2.99 ± 0.22 | -1.79 ± 0.14
ACACAGCAAUAUUACGGGAU | -1.91 ± 0.053 | -0.774 ± 0.06
ACACAGCAAUAUUACGGUAG | -4 ± 0.17 | -3.1 ± 0.15
ACACAGCAAUAUUACGGUCG | -1.09 ± 0.051 | -0.473 ± 0.076
ACACAGCAAUAUUACGUACC | -1.43 ± 0.11 | -1.12 ± 0.15
ACACAGCAAUAUUACGUAUA | -3.41 ± 0.13 | -2.5 ± 0.12
ACACAGCAAUAUUACGUCAA | -2.25 ± 0.19 | -1.99 ± 0.14
ACACAGCAAUAUUACGUCGA | -1.22 ± 0.089 | -0.852 ± 0.092
ACACAGCAAUAUUACGUGCU | -1.34 ± 0.055 | -0.611 ± 0.065
ACACAGCAAUAUUACGUGGU | -4.33 ± 0.16 | -2.82 ± 0.11
ACAGAGCAAUAUUACGAACU | -3.35 ± 0.21 | -1.61 ± 0.21
ACAGAGCAAUAUUACGAAGG | -3.82 ± 0.23 | -3.32 ± 0.33
ACAGAGCAAUAUUACGACGG | -2.78 ± 0.24 | -1.65 ± 0.27
ACAGAGCAAUAUUACGACUA | -1.17 ± 0.48 | -1.17 ± 0.42
ACAGAGCAAUAUUACGAGAA | -2.03 ± 0.45 | 
ACAGAGCAAUAUUACGAGCA | -3.84 ± 0.28 | -2.83 ± 0.31
ACAGAGCAAUAUUACGAGGG | -2.31 ± 0.14 | -2.35 ± 0.24
ACAGAGCAAUAUUACGAUGC | -2.74 ± 0.14 | -2.47 ± 0.29
ACAGAGCAAUAUUACGCAUC | -4.07 ± 0.25 | -2.59 ± 0.23
ACAGAGCAAUAUUACGCCGU | -2.59 ± 0.35 | -0.807 ± 0.33
ACAGAGCAAUAUUACGCGUC |  | -2.07 ± 0.29
ACAGAGCAAUAUUACGCUUC | -3.96 ± 0.24 | -2.16 ± 0.3
ACAGAGCAAUAUUACGGAUG | -4.02 ± 0.31 | -3.37 ± 0.37
ACAGAGCAAUAUUACGGCGA | -3.14 ± 0.31 | -1.17 ± 0.17

Sequence | self-splicing fitness (ln) (30 °C) | self-splicing fitness (ln) (37 °C)
ACAGAGCAAUAUUACGGCUA | -3.1 ± 0.23 | -1.41 ± 0.14
ACAGAGCAAUAUUACGGGAG | -3.51 ± 0.28 | -1.62 ± 0.21
ACAGAGCAAUAUUACGGGCA | -2.58 ± 0.19 | -0.773 ± 0.15
ACAGAGCAAUAUUACGGGCU | -3.02 ± 0.22 | -2.58 ± 0.2
ACAGAGCAAUAUUACGGUAU | -4.21 ± 0.36 | -3.75 ± 0.26
ACAGAGCAAUAUUACGGUGG | -4.17 ± 0.23 | -3.01 ± 0.32
ACAGAGCAAUAUUACGUAAU | -3.43 ± 0.4 | -2.5 ± 0.41
ACAGAGCAAUAUUACGUAUU | -3.66 ± 0.23 | -2.84 ± 0.27
ACAUAGCAAUAUUACGAAUG | -1.65 ± 0.1 | -1.22 ± 0.13
ACAUAGCAAUAUUACGAUAG | -3.38 ± 0.19 | -1.36 ± 0.17
ACAUAGCAAUAUUACGCACC | -1.83 ± 0.18 | 0.273 ± 0.18
ACAUAGCAAUAUUACGCAUA | -3.01 ± 0.17 | -1.85 ± 0.12
ACAUAGCAAUAUUACGCAUG | -2.85 ± 0.13 | -1.15 ± 0.12
ACAUAGCAAUAUUACGCCCG | -0.76 ± 0.16 | -0.298 ± 0.15
ACAUAGCAAUAUUACGCGCU | -1.19 ± 0.095 | -0.534 ± 0.098
ACAUAGCAAUAUUACGCGGC | -3.77 ± 0.18 | -2.8 ± 0.3
ACAUAGCAAUAUUACGCGUU | -3.55 ± 0.24 | -2.39 ± 0.15
ACAUAGCAAUAUUACGCUCA | -0.539 ± 0.11 | -0.358 ± 0.12
ACAUAGCAAUAUUACGCUUC | -3 ± 0.29 | -1.82 ± 0.28
ACAUAGCAAUAUUACGGAAA | -2.14 ± 0.26 | -2.11 ± 0.2
ACAUAGCAAUAUUACGGACA | -1.57 ± 0.16 | -0.382 ± 0.14
ACAUAGCAAUAUUACGGAGA | -3.28 ± 0.25 | -2.47 ± 0.24
ACAUAGCAAUAUUACGGGCU | -1.4 ± 0.13 | -0.715 ± 0.16
ACAUAGCAAUAUUACGGUCU | -1.46 ± 0.071 | -0.428 ± 0.089

Sequence | self-splicing fitness (ln) (30 °C) | self-splicing fitness (ln) (37 °C)
ACAUAGCAAUAUUACGGUUC | -2.93 ± 0.17 | -2.51 ± 0.24
ACAUAGCAAUAUUACGUAUU | -4.38 ± 0.21 | -2.78 ± 0.23
ACAUAGCAAUAUUACGUUCA | -1.39 ± 0.095 | -0.808 ± 0.13
ACAUAGCAAUAUUACGUUGG | -3.23 ± 0.2 | -2.29 ± 0.14
ACCAAGCAAUAUUACGAGAC | -3.68 ± 0.18 | -2.86 ± 0.21
ACCAAGCAAUAUUACGAGGC | -3.14 ± 0.14 | -2.32 ± 0.22
ACCAAGCAAUAUUACGAGGU | -3.76 ± 0.21 | -2.22 ± 0.18
ACCAAGCAAUAUUACGAUGG | -1.76 ± 0.076 | -0.995 ± 0.12
ACCAAGCAAUAUUACGCAAA | -1.56 ± 0.12 | -1.74 ± 0.15
ACCAAGCAAUAUUACGCAAU | -2.01 ± 0.1 | -1.04 ± 0.1
ACCAAGCAAUAUUACGCACA | -0.684 ± 0.075 | 0.0111 ± 0.087
ACCAAGCAAUAUUACGCAGA | -2.84 ± 0.25 | -0.709 ± 0.14
ACCAAGCAAUAUUACGCAUG | -3.75 ± 0.11 | -2.2 ± 0.11
ACCAAGCAAUAUUACGCGCC | -1.35 ± 0.11 | 0.198 ± 0.14
ACCAAGCAAUAUUACGCGGC | -3.19 ± 0.25 | -2.39 ± 0.21
ACCAAGCAAUAUUACGCGGU | -3.54 ± 0.12 | -2.84 ± 0.16
ACCAAGCAAUAUUACGCUAG | -2.03 ± 0.071 | -1.52 ± 0.1
ACCAAGCAAUAUUACGGAGA | -3.16 ± 0.15 | -1.66 ± 0.11
ACCAAGCAAUAUUACGGAUG | -2.47 ± 0.069 | -2.48 ± 0.088
ACCAAGCAAUAUUACGGCCA | -0.654 ± 0.099 | 0.134 ± 0.12
ACCAAGCAAUAUUACGGCUG | -1.55 ± 0.068 | -0.288 ± 0.081
ACCAAGCAAUAUUACGGUCC | -2.8 ± 0.12 | -1.07 ± 0.12
ACCAAGCAAUAUUACGUACG | -2.52 ± 0.083 | -1.28 ± 0.092
ACCAAGCAAUAUUACGUAGC | -3.58 ± 0.13 | -2.44 ± 0.13

Source: the supplement of paper PMC7877785
